# Target: HIV-1 reverse transcriptase p66 subunit, wild type (HIV-1)
# Experiment: glycerol gradient ultracentrifugation
substance,measurement,value
"HIV-1 reverse transcriptase p66 subunit, wild type (enzyme)",stoichiometry N,2
